Our source for the self-cleavage values is the RNAGym collection of RNA variant scans (doi:10.7554/elife.90254).

B1: OR4K15 (parent)
chain: GUUAACGGUCAUAGGCCAUGGAAACUAGGAGCACCAUUUCGCUGCCAGUGAAGAAAUGAACAAAGAAAAUCUGGGCCAGGCAGGCAUCAAAAGAAAUAGUCUUGCGCUCAACCAGAAAGUCUGUAAUCAUUUUAAGGGUA

This data set covers variants of B1. In words: self-cleavage, relative activity (ratio to wild type); higher = more cleavage; in vitro, sequencing; the parent is a self-cleaving ribozyme.
With GUUAACGGUCAUAGGCCAUGGAAACUGGGAGCACCAUUUCGCUGCCAGUGAAGAAAUGAACAAAGAAAAUCUGGGCCAGGCAGGCAUCAAAAGAAAUAGUCUUGCGCUCAGCCAGAAAGUCUGUAAUCAUUUUAAGGGUA, the self-cleavage is 0.03.
Consider GUUAACGGUCAUAGGCCAUGGAAACUGGGAGCACCAUUUCGCUGCCAGUGAAGAAAUGAACAAAGAGAAUCUGGGCCAGGCAGGCAUCAAAAGAAAUAGUCUUGCGCUCAACCAGAAAGUCUGUAAUCAUUUUAAGGGUA, for which the self-cleavage came out at 1.25.
On to GUUAACGGUCAUAGGCCAUGGAAACUGGGAGCACCAUUUCGCUGCCAGUGAAGAAAUGAACAAAGAAAAUCUGGGCCAGGCAGGCAUCAAAAGAAUUAGUCUUGCGCUCAACCAGAAAGUCUGUAAUCAUUUUAAGGGUA, for which the self-cleavage turned out to be 1.83.
GUUAACGGUCAUAGGCCAUGGAAACUGGGAGCACCAUUUCGCUGCCAGUGAAGAAAUGAACAAAGAAGAUCUGGGCCAGGCAGGCAUCAAAAGAAAUAGUCUUGCGCUCAACCAGAAAGUCUGUAAUCAUUUUAAGGGUA: the self-cleavage was found to be 1.13.
As for GUUAACGGUCAUAGGCCAUGGAAACUGGGAGCACCAUUUCGCUGCCAGUGAAGAAAUGAACAAAGAAAGUCUGGGCCAGGCAGGCAUCAAAAGAAAUAGUCUUGCGCUCAACCAGAAAGUCUGUAAUCAUUUUAAGGGUA, the self-cleavage came to 0.62.
In the case of GUUAACGGUCAUAGGCCAUGGAAACUGGGAGCACCAUUUCGCUGCCAGUGAAGAAAUGAACAAAGAAAAUCUGGGCCAGGCAGGCAUCAAAAGAAAUAGUCUUGCGCUCAACCAGGAAGUCUGUAAUCAUUUUAAGGGUA, the self-cleavage came out at 0.99.
GUUAACGGUCAUAGGCCAUGGAAACUGAGAGCACCAUUUCGCUGCCAGUGAAGAAAUGAACAAAGAAAAUCUGGGCCAGGCAGGCAUCAAAAGAAAUAGUCUUGCGCUCAACCAGAAAGUCUGUAAUCAUUUUAAGGGUA: the self-cleavage stood at 0.78.
As for GUUAACGGUCAUAGGCCAUGGAAACUGGGAGCACCAUUUCGCUGCCAGUGAAGAAAUGAACAAAGAAAAUCUGGGCCAGGCUGGCAUCAAAAGAAAUAGUCUUGCGCUCAACCAGAAAGUCUGUAAUCAUUUUAAGGGUA, the self-cleavage came to 0.27.
As to GUUAACGGUCAUAGGCCAUGGAAACUGGGAGCACCAUUUCGCUGCCAGUGAAGAAAUGAACAAAGAAAAUCUGGGCCAGGCAGGCAUCAAAAGAAAUAGUCUUGCGCUCAACCAGAAAGUCUGUAAUCAUUUUGAGGGUA, the self-cleavage was determined as 1.86.
For GUUAACGGUCAUAGGCCAUGGAAACUGGGAGCACCAUUUCGCUGCCAGUGAAGAAAUGAACAAAGAAAAUCUGGGCCGGGCAGGCAUCAAAAGAAAUAGUCUUGCGCUCAACCAGAAAGUCUGUAAUCAUUUUAAGGGUA the value was 0.3.
In the case of GUUAACGGUCAUAGGCCAUGGAAACUGGGAGCACCAUUUCGCUGCCAGUGAAGAAAUGAACAAAGAAAAUCUGGGCCAGGCAGGCAUCAAAGGAAAUAGUCUUGCGCUCAACCAGAAAGUCUGUAAUCAUUUUAAGGGUA, the self-cleavage turned out to be 1.48.
For GUUAACGGUCAUAGGCCAUGGAAACUGGGAGCACCAUUUCGCUGCCAGUGAAGAAAUGAACAAAGAAAAUCUGGGCCAGGCAGGCAUCAAAUGAAAUAGUCUUGCGCUCAACCAGAAAGUCUGUAAUCAUUUUAAGGGUA the value was 1.07.
As for GUUAACGGUCAUAGGCCAUGGAAACUGGGAGCACCAUUUCGCUGCCAGUGAAGAAAUGAACAAAGAAAAUCUGGGCCAGGCAGGCAUCAAAAGAAAUAGUCUUGUGCUCAACCAGAAAGUCUGUAAUCAUUUUAAGGGUA, the self-cleavage came to 0.24.
In the case of GUUAACGGUCAUAGGCCAUGGAAACUGGGAGCACCAUUUCGCUGCCAGUGAAGAAAUGAACAAAGGAAAUCUGGGCCAGGCAGGCAUCAAAAGAAAUAGUCUUGCGCUCAACCAGAAAGUCUGUAAUCAUUUUAAGGGUA, the self-cleavage was 0.7.
For GUUAACGGUCAUAGGCCAUGGAAACUGGGAGCACCAUUUCGCUGCCAGUGAAGAAAUGAACAAAGAAAAUCUGGGCCAGGCAGGCAUCAAAAGAUAUAGUCUUGCGCUCAACCAGAAAGUCUGUAAUCAUUUUAAGGGUA the value was 1.2; for GUUAACGGUCAUAGGCCAUGGAAACUGGGAGCACCAUUUCGCUGCCAGUGAAGAAAUGAACAAAGAAAAUCUGGGCCAGGCAGGCAUCAAAAGAAAUAGUCUUGCGCUCAACCAGAAAGUCUGUAAUCUUUUUAAGGGUA, 0.72; for GUUAACGGUCAUAGGCCAUGGAAACUGGGAGCACCAUUUCGCUGCCAGUGAAGAAAUGAACAAAGAAAAUCUGGGCCAGGCAGGCAUCAUAAGAAAUAGUCUUGCGCUCAACCAGAAAGUCUGUAAUCAUUUUAAGGGUA, 1.
On to GUUAACGGUCAUAGGCCAUGGAAACUGGGAGCACCAUUUCGCUGCCAGUGAAGAAAUGAACAAAGAAAAUCUGGGCCAGGCAGGCGUCAAAAGAAAUAGUCUUGCGCUCAACCAGAAAGUCUGUAAUCAUUUUAAGGGUA, for which the self-cleavage worked out at 1.4.
For GUUAACGGUCAUAGGCCAUGGAAACUGGGAGCACCAUUUCGCUGCCAGUGAAGAAAUGAACAAAGAAAAUCUGGGCCAGGCAGGCUUCAAAAGAAAUAGUCUUGCGCUCAACCAGAAAGUCUGUAAUCAUUUUAAGGGUA the value was 1.34; for GUUAACGGUCAUAGGCCAUGGAAACUGGGAGCACCAUUUCGCUGCCAGUGAAGAAAUGAACAAAGAAAAUCUGGGCCAGGCAGGCAUCAAAAGGAAUAGUCUUGCGCUCAACCAGAAAGUCUGUAAUCAUUUUAAGGGUA, 1.48; for GUUAACGGUCAUAGGCCAUGGAAACUGGGAGCACCAUUUCGCUGCCAGUGAAGAAAUGAACAAAGAAAAUCUGGGCCAGGCAGGCAUCAAAAGAAAUAGUCUUGCGCUCAACCGGAAAGUCUGUAAUCAUUUUAAGGGUA, 0.27.
